According to the nanobody polyreactivity screen of Harvey et al. (2022):

experiment: yeast display, Sf9 membrane polyspecificity reagent, FACS + sequencing; frameworks hold sequencing errors
Method in brief: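 A synthetic nanobody library was expressed on Saccharomyces cerevisiae BJ5465 by galactose induction for 36–48 hours. The library was stained for 1 hour at 4 °C with 10% biotinylated, detergent-solubilized Sf9 membrane reagent and enriched with streptavidin microbeads before FACS. Low and high (top ~1%) gates were set on anti-HA fluorescence for expression and streptavidin fluorescence for reagent binding, and each polyreactivity label reflects the gate of origin.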

Row | Sequence | polyreactivity (PSR sort gate)
1 | QVQLVESGGGLVQAGCSLRLSCAASGNTYYSYTMGWYRQAPGKERELVAAITGSGSTYYADSVKGRFTISRDNAKNTVYLQMNSLKPEDTAVYYCASRYVERHTDYYYWGQGTQVTVSS | low polyreactivity
2 | QVQLVESGGGLVQAGCSLRLSCAASGRIDRRYAMGWYRQAPGKERDLFAAISSRGGRTYYADSVKGRFTISRDNAMNTVYLQMNSLKQEDTAVYYCAARPAGYGHYKYYYWGKGTQVTVSS | high polyreactivity
3 | QVQLVESGGGLVQAGCSLRLSCAASGRIFRGNAMGWYRQAPGKERELVARITGNDGDTYYADSVKGRFTISRDNAKNTVYLQMNSLNPEDTAVYYCATDTSSYRRRYYYWGQGTQVTVSS | low polyreactivity
4 | QVQLVESGGGLVQAGCSLRLSCAASGRIFRKNTMGWYIQAPGKEWELVAAISFRGASTYYADSVKGRFTISRDNAKNTVYLQMNSLKPEDTAVYYCATVRAHASRLGYDYWGQGTQVTVSS | high polyreactivity
5 | QVQLVESGGGLVQAGCSLRLSCAASGRIFTHNAMGWYRPAPGKERELVAAITSGGRTTYADSVKGRFTFSRDNAKNTVYLQMHSLNPEDTAVYYCNADTGLGSLDFDKRDYWGQGTQVTVSS | low polyreactivity
6 | QVQLVESGGGLVQAGCSLRLSCAASGRIFTSNAMGWYRQAPGTERELVAVISRRGGSTYYADSVKGRFTISRDNAMNTVYLQMNSLKPEDTAVYYCARRPYSYTRYEYWGQGTQVTVSS | low polyreactivity
7 | QVQLVESGGGLVQAGCSLRLSCAASGRIIDGYAMGWYRQAPGKEREFVAAITWIGGRTYYADSVKGRFTISRDNAKITVYLHMNSLKPEDTAVYYCAVVQSRYRGRFDYWGQGTQVTVTS | high polyreactivity
8 | QVQLVESGGGLVQAGCSLRLSCAASGRIITRYPMGWYRQAPGKERELVAAISYGGGGTYYADSVKGRFTISRDNAKNTVYLQMNSLKPDDTAVYYCATDDPLSQINEQGMDYWGQGTQVTVSS | low polyreactivity
9 | QVQLVESGGGLVQAGCSLRLSCAASGRNFRYYAMGLYRQAPGKERELVAAIDTGDTYYADSVKGRFTISRDNAKYTGYLQMNSLKPEDTAVYYSAAEGSTSLDDYWGQGTQVTVSS | high polyreactivity
10 | QVQLVESGGGLVQAGCSLRLSCAASGRTFGRNAMGWNRQAPGKERELVAAITSGGSTSYADSVKGRFTISRDNAKNTVYLQMNSLKPEDTAVYYCAADVRPYYTRRVWIQFDYWGQGTQVTVSS | high polyreactivity
11 | QVQLVESGGGLVQAGCSLRLSCAASGRTFTLNAMGWYRQAPGKERELVADITYSDGDTYYADSVKGRFTISRDNAKNTVYLQMNSLIPEDTAGYYCAAGGYTDPGYEYWGQGTQVTVSS | low polyreactivity
12 | QVQLVESGGGLVQAGCSLRLSCAASGRTFYHYGMGWYRQAPGKERELVAAINFSGGSTNYADSVKGRFTISRDNAKNTVYLQMNSLKTEDTAVYNCNKEGRPDRDYWGQGTQVTVSS | low polyreactivity
13 | QVQLVESGGGLVQAGCSLRLSCAASGSIFAYYTMGWYRQAAGKERELVATISSGDITNYADSVKGRFTISRDNAKNSVYLQMNSLKPEDTAVYFCAAAELTSYYRTFIHKDYDFWGQGTQVSVSS | low polyreactivity
14 | QVQLVESGGGLVQAGCSLRLSCAASGSIFDVNAMGWYRQAPGKERELVAAISQRGNRTYYADSVKGRFTISRDNAKNTVYLQMNSLKPEDTAVYYCNRGGWRQYDSWGQGTQVTVSS | high polyreactivity
15 | QVQLVESGGGLVQAGCSLRLSCAASGSNFYRNSMRWYRQAPGKERELVAGITTRGGSTYYADSVKGRFTISRDNAKNTVYLQMNSLKPEDTEVYYCNARSYTGSYFKYYYWGQGTQVTVSS | high polyreactivity
16 | QVQLVESGGGLVQAGCSLRLSCAASGSTFRKYAMGWYSQAPGKQREFVAAITSSGGSTYYSDSVKGRFTISRDKAKNTVYLLMNSLIPEDTAVYYCASRGVYVSTAYNYWGQGTQVTESS | high polyreactivity
17 | QVQLVESGGGLVQAGCSLRLSCAASGSTFRRYAMGWYRQAPGKERELVAAISGGGTSTYYADSVEGRFTISRDNAKNTVDLQMNSLKPEDTAVYYCNAKTYYARYDYWGQGTQVSVSS | high polyreactivity
18 | QVQLVESGGGLVQAGCSLRLSCAASGTFGLYAMGWYRQAPGKERELVAAIRARGGSTYYADSVKGRFTISRDNAKNTVYLQMNSLKPEDTAVYYCAAEFWDVSLARKQWYDYWGQGTQVSVSS | high polyreactivity
19 | QVQLVESGGGLVQAGCSLRLSCAASRYIFYFYAMGWYRQAPGKERELVAAINSGGTTNYADSVKGRFTISRDNAKNTVYLQMNSLKAEDTAVYYCAARLLIRYYYWGQGTQVTVSS | high polyreactivity
20 | QVQLVESGGGLVQAGCSLRLSCAATGCSFKYNTMGWYRQAPGKERELVAAITSGGGSTYYADSVKGRFTISRDNAKNTVYLPMNRLKPEDTAVYYCAAYRRNTYWGQGTQVTVSA | high polyreactivity
21 | QVQLVESGGGLVQAGCSRRFSCAASGFTFYKNAMGWYRQAPGKERELVAAITSSGGTTYYADSVKGRFTISRDNAKNTVYLQMNSLNPEDTAVYYCAARASRPRFGYWGQGTQVTVSS | high polyreactivity

Row | Sequence | polyreactivity (PSR sort gate)
22 | QVQLVESGGGLVQAGDSLRLSCAASGSIFVYYAMGWYRQAPGKERELVASISKTGGRTYYADSVKGRFTISRDNAKNTVFLQMNSLKPEDTAVYYCAARYTIRYKRYDYWGQGSQVTVSS | high polyreactivity
23 | QVQLVESGGGLVQAGFSLRLSCAASGFTFKYYAMGWYRQAPGKERELVAAISSGGSTYYADSVKGRFTISRDNAKNTVYLQMNSLKPEDTAVYYCNRRFAPFWGRYGYWGQGTKVTVSS | high polyreactivity
24 | QVQLVESGGGLVQAGGCLRLSCAASGFTLRYNAMGWSRQAPGKERELVAAITTGGRTNYADSVKGRFTISRDNAKKTVYLQMNSLKPEDTAVYNCNKVFRSFDYWGQGTQVTVSS | high polyreactivity
25 | QVQLVESGGGLVQAGGCLRLSCAASGSIFGYNAMGWYRHAPGKERELVAAISWRGGSTYYADSVKGRFTISRDNAKNSVYLQMNSLKPEDTAVYYCNTLYPYRHDYAGDYWGQGTQVTVSA | high polyreactivity
26 | QVQLVESGGGLVQAGGCLRLSCAASGSTFSPNAMGWYRQAPGKERELVAAISVSCGTTYYADSVKGRFTISRDNAKNTVYLQMNSLKPEDTAVYYCAAKPYPTDDYWGQGTQVTVSS | low polyreactivity
27 | QVQLVESGGGLVQAGGGLRLSCAASGNTFRYYAMGWYIQAPGKERELVATITSGGRTYYADSVKGRFTISRDNAKNTVYLQMNSLKPEDTAVYYCNADYFQDRLDYWGQGTQVTVSS | low polyreactivity
28 | QVQLVESGGGLVQAGGGLRLSCAASGSIFLINAMGWYRQAPGKERELVAAITSGSSTNYADSVKGRFTISRDNAKNTVYLQMNSLKPEDTAVYYCAASTPYSYRYDYWGQGTQVTVSS | low polyreactivity
29 | QVQLVESGGGLVQAGGGLRLSSAASGTFKRNAVGWYRQAPGKERELVATITRTGSTTYADSVKGRFTISRDNAMNTVYLQMNSLKPEDTAVYYCAAGYPPEDPEDYWGQGTQVTVSS | low polyreactivity
30 | QVQLVESGGGLVQAGGILPLSCAASGSIFVSNAMGWSRQAPGKERELVAAISSGSTYYADSVKGRFTISRDNAKNTVYLQMNSLKPEDTAVFYCIARSLLYEFDYWGQGTQVTVSS | low polyreactivity
31 | QVQLVESGGGLVQAGGILRFSCAASGRISVVNAMAWFRQAPGKARELVAAIRRASTNYADSVKGRFTISRDNAKNTVYLQMNSLKPEDTAVYYCAARVYGINIFEYWGQGTQVTLSS | high polyreactivity
32 | QVQLVESGGGLVQAGGILRISCAASGRTFIMNAMGWYRQAPGKERELVAAINWSGGTSTYYADSVKGRFTISRDNAKNTVYFQMNSLKPEDTAVYYCAADYYSYVYYDYWGQGTLVTVSS | low polyreactivity
33 | QVQLVESGGGLVQAGGILRLSCAASGFIFAPNAMGWYRQPPGKERELVAAISASGGSTYYADSVKGRFTISRDNAKNTVYLQMNSLKPEDTAVYYCAADRTFSSFPEYNYWGQGTQVTVSS | low polyreactivity
34 | QVQLVESGGGLVQAGGILRLSCAASGFIFDSYAMGWYRQAPGKERELVAAINWNGGRTYYADSVKGRFTISRDNAKNTVYLQMNRLKPEDTAVYYCAKDTDNWDVGGYVYDYDYWGQGTQVTVSS | high polyreactivity
35 | QVQLVESGGGLVQAGGILRLSCAASGFIFRKYAMGWYRQAPGKERELVAAINKSGGSTYYADSVKGRFTISRDNAKNTVYLQMNSLKPEDSAVYYCATVRTYRPPVRRGYWGQGTLVTVSS | high polyreactivity
36 | QVQLVESGGGLVQAGGILRLSCAASGFTFHRYAMGWYRQAPGKERELVARITRGGSTKYADSVKGRFTISRDNAKNTVYLQMNSLKPEDTAVYYCAADYGGFLGYDYWGQGNQVTVSS | high polyreactivity
37 | QVQLVESGGGLVQAGGILRLSCAASGFTFPWYTMGWYRQAPGKERELVAAISKSGGSTYYADSVKGRFTISRDNAKNTVFLQMNSLKPEDTAVYYCAARGNLYVGGDERFWGQGTQVTVSS | high polyreactivity
38 | QVQLVESGGGLVQAGGILRLSCAASGFTLLPYAMGWYTQAPGKERELVAAISRRGVSTYYADSVKGRFTLSRDNAKNTVYLPMNSLNPQDTAVNYCAADSYSRATVQYEYWGQCTQVTVSS | high polyreactivity
39 | QVQLVESGGGLVQAGGILRLSCAASGGIFNRYSKGWYRQAPGKERELVAGITRSGGSTSYADSVKGRFTISRDNAKNTVYLQMNSLKPEDTAVYFCKKVAYYASSSSYRFGAYGYWGQGSQVTVSS | high polyreactivity
40 | QVQLVESGGGLVQAGGILRLSCAASGIIYQRNAMGCYRQAPGKERQLVASITAGGDTTYYADSVKGRFTISRDNAKNTVYLQMNSLKPEDTAVYYCAVDSWLDDDDSYPDSILVDYWGQGTQVTVSS | low polyreactivity
41 | QVQLVESGGGLVQAGGILRLSCAASGLIFANNAMGWYRQAPGKERELVAAITGGGDGTYYADYVKGRFTISRDNAKNNVYFQMNSLKPEDTAVYYCAADYKYLGSEYCYWGQGTQVTVSS | low polyreactivity
